The values that follow are results of earlier work, collected in publication PMC8946809.

The target of the data set is His516 (UniProt position 538, FRPNYHGVGTC). The data set is described as follows: kinetics. The conditions noted are these: enzyme-substrate complex.

Regarding “Glucose oxidase (GOx) (Aspergillus niger)”, the pKa is listed as 6.9–7.8.
